# Laboratory results published in paper PMC2955292 (Chemistry & biology, 2010).
# B1: ClpA: AAA+ family ATPase that assembles into hexameric rings and binds ClpP (protein)
# chain: MLNQELELSLNMAFARAREHRHEFMTVEHLLLALLSNPSAREALEACSVDLVALRQELEAFIEQTTPVLPASEEERDTQPTLSFQRVLQRAVFHVQSSGRNEVTGANVLVAIFSEQESQAAYLLRKHEVSRLDVVNFISHGTRKDEPTQSSDPGSQPNSEEQAGGEERMENFTTNLNQLARVGGIDPLIGREKELERAIQVLCRRRKNNPLLVGESGVGKTAIAEGLAWRIVQGDVPEVMADCTIYSLDIGSLLAGTKYRGDFEKRFKALLKQLEQDTNSILFIDEIHTIIGAGAASGGQVDAANLIKPLLSSGKIRVIGSTTYQEFSNIFEKDRALARRFQKIDITEPSIEETVQIINGLKPKYEAHHDVRYTAKAVRAAVELAVKYINDRHLPDKAIDVIDEAGARARLMPVSKRKKTVNVADIESVVARIARIPEKSVSQSDRDTLKNLGDRLKMLVFGQDKAIEALTEAIKMARAGLGHEHKPVGSFLFAGPTGVGKTEVTVQLSKALGIELLRFDMSEYMERHTVSRLIGAPPGYVGFDQGGLLTDAVIKHPHAVLLLDEIEKAHPDVFNILLQVMDNGTLTDNNGRKADFRNVVLVMTTNAGVRETERKSIGLIHQDNSTDAMEEIKKIFTPEFRNRLDNIIWFDHLSTDVIHQVVDKFIVELQVQLDQKGVSLEVSQEARNWLAEKGYDRAMGARPMARVIQDNLKKPLANELLFGSLVDGGQVTVALDKEKNELTYGFQSAQKHKAEAAH
# Target: E. coli ClpP (Escherichia coli, UniProt P0A6G7)
# Sequence (P0A6G7 15-207): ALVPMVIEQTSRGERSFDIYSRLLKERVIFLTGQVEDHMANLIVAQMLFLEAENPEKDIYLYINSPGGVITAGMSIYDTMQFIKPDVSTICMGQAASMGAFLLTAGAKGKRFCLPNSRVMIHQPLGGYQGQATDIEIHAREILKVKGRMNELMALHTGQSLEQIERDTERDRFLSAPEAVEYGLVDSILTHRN
# Conditions: Figure S1A; SDS-PAGE
molecule,measurement,value
B1,pattern of β-casein degradation products (processivity),promoted processive degradation of β-casein
